From US20240352438A1, “MEANS AND METHODS FOR DETOXIFYING OCHRATOXIN A” (DSM Austria GmbH, priority 2021, published 2024) come the findings set out here.

Changes are numbered by the printed parent chain. Bounds are passed on as bounds.

B1: 37 (protein)
chain: MYSLAIRNGIVFDGEKFIGKTNIYVDGDKIVKITNERLDAKEEVNAEGYFVMPGLIDAHLHLTGIRGGSLLMGYLLDDPRTRLLRAANWARELLMAGFTTVRDCGGPNSIILRNAINEGIIPGPRIIAAGSPITQTFGHAELSHSLPLEWSIQLGFGEICDGVDECIKAARKVLRSGADFIKIMATGGVLSERDRPEWPQLTPEEMSAIVREAEKVGTYVAAHAHGDKGARIAVEAGVRTIEHGSLITEETVKLMAEKGVSLTPTLSIQELIYKYGKQMGIDPWGLEKIGQVREGVINSIKLARKYGVMILAGTDLGFKTGLDIDMGKNWVEVKLLVELGGLSSEEALRAATGNASKMLRLNTGIIREGYLADIVLINGNPLENINDIARVSTVIKGGKVTVENGKLI
modifications: exemplary polypeptide
B2: 38 (protein)
chain: B1 chain with G106S
modifications: exemplary polypeptide
B3: 51 (protein)
chain: MTTRTRILTAFLSLLAANACAADAAPAAPHTVVLRAARMFDGASGKLVDHPQLTIVGNKIVRIAQGDKAEVPAGAEVVDLGDATLLPGFIDAHVHLSGQSSDNWYGDFFDNMMRFPAEQALYGAYYARITLEAGFTSVRDVGSTDWVALGLRNAIDAGKVPGPRMLVSNYGVGSTGGHADQDPIPPHKLPLAGPLQGVCNGPEECRAAVRYQIKYGANVIKFMPSGGVLSLSDPVDAPELSQDEMNAVIGESHAWGRKVAAHAHGDKAAKMAVAAGVDSIEHGSFIEDDTLRAMKAKNVYLVPTISAIAHVEEKIGTFPPVIAEKGRAAAAHLRQTFRHAVQIGVPIALGTDAGVGAHGSNAREFRYMVENGLTPAQALLAGTANAARLLGTFDRVGTLEAGKLADVVAVPGNPIADITVTERPLFVMKDGVVVRRDAVR
modifications: exemplary polypeptide
B4: 64 (protein)
chain: B3 chain with S143E, G171A
modifications: exemplary polypeptide
B5: 55 (protein)
chain: B3 chain with G171A, L229V
modifications: exemplary polypeptide
B6: 53 (protein)
chain: B3 chain with G171A, P183S
modifications: exemplary polypeptide
B7: 70 (protein)
chain: B3 chain with G171A, Q181L
modifications: exemplary polypeptide
B8: 60 (protein)
chain: B3 chain with G171A, V311T
modifications: exemplary polypeptide
B9: 59 (protein)
chain: B3 chain with G171A, I308V
modifications: exemplary polypeptide
B10: 54 (protein)
chain: B3 chain with G171A, V228A
modifications: exemplary polypeptide
B11: 56 (protein)
chain: B3 chain with G171A, L229M
modifications: exemplary polypeptide
B12: 58 (protein)
chain: B3 chain with G171A, A307G
modifications: exemplary polypeptide
B13: 66 (protein)
chain: B3 chain with G171A, V311A
modifications: exemplary polypeptide
B14: 68 (protein)
chain: B3 chain with G171A, A357P
modifications: exemplary polypeptide
B15: 52 (protein)
chain: B3 chain with G171A, P183G
modifications: exemplary polypeptide
B16: 57 (protein)
chain: B3 chain with G171A, A307S
modifications: exemplary polypeptide
B17: 62 (protein)
chain: B3 chain with G171A, V235P
modifications: exemplary polypeptide
B18: 61 (protein)
chain: B3 chain with G171A, V355T
modifications: exemplary polypeptide
B19: 67 (protein)
chain: B3 chain with G171A, V355A
modifications: exemplary polypeptide
B20: 63 (protein)
chain: B3 chain with G171A, E239Q
modifications: exemplary polypeptide
B21: 69 (protein)
chain: B3 chain with G171A, Q181M
modifications: exemplary polypeptide

One data set is described as follows: Thermostability assay: residual OTA detoxification activity after 10 min incubation at 45-99° C. (T50). To be noted: 0.1 mg/mL protein in 20 mM Tris-HCl pH 7.5, residual OTA detoxification activity relative to 4° C. reference aliquot. Format: physicochemical. In short, it runs like this: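 Purified enzyme at 0.1 mg/mL in 20 mM Tris-HCl pH 7.5 was heated 10 min at 45–99 °C, then held at 4 °C. Residual OTA detoxification activity was expressed relative to an aliquot kept at 4 °C throughout; T50 is the temperature range giving 50% activity loss.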
In the case of B1, the “T50 (temperature at which 50% of the initial activity was maintained)” value is greater than 99 °C.

B2: the “T50 (temperature at which 50% of the initial activity was maintained)” value was greater than 99 °C.

B3: the “T50 (temperature at which 50% of the initial activity was maintained)” value was 68-70 °C.

On to B4, for which the “T50 (temperature at which 50% of the initial activity was maintained)” value was 63-64 °C.

With B5, the “T50 (temperature at which 50% of the initial activity was maintained)” value is 64-66 °C.

In the case of B6, the “T50 (temperature at which 50% of the initial activity was maintained)” value was less than 63.2 °C.

With B7, the “T50 (temperature at which 50% of the initial activity was maintained)” value is less than 63.2 °C.

On to B8, for which the “T50 (temperature at which 50% of the initial activity was maintained)” value is 66-68 °C.

As to B9, the “T50 (temperature at which 50% of the initial activity was maintained)” value was 68-70 °C.

Take B10: the “T50 (temperature at which 50% of the initial activity was maintained)” value was less than 63.2 °C.

For B11, the “T50 (temperature at which 50% of the initial activity was maintained)” value was 66-68 °C.

As for B12, the “T50 (temperature at which 50% of the initial activity was maintained)” value was found to be 72 °C.

For the molecule B13, the “T50 (temperature at which 50% of the initial activity was maintained)” value is 65.3-66.9 °C.

Take B14: the “T50 (temperature at which 50% of the initial activity was maintained)” value was 70.7-72.6 °C.

Consider B15, for which the “T50 (temperature at which 50% of the initial activity was maintained)” value is less than 63.2 °C.

With B16, the “T50 (temperature at which 50% of the initial activity was maintained)” value was 68-70 °C.

B17: the “T50 (temperature at which 50% of the initial activity was maintained)” value is 63-64 °C.

B18: the “T50 (temperature at which 50% of the initial activity was maintained)” value is 66-68 °C.

For the molecule B19, the “T50 (temperature at which 50% of the initial activity was maintained)” value is less than 63.2 °C.

For B20, the “T50 (temperature at which 50% of the initial activity was maintained)” value is 72-74 °C.

On to B21, for which the “T50 (temperature at which 50% of the initial activity was maintained)” value was less than 63.2 °C.

A short description of another data set: OTA detoxification activity assay (specific activity, fluorescence reduction ex/em 390/450 nm). Format: biochemical. To be noted: pH 6.0; SEQ ID NO: 1 = 100%. The method, boiled down: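 Recombinant enzyme preparation with 200 ng/mL OTA in 100 mM sodium phosphate, at pH 6.0 and pH 7.5, 37° C. Degradation followed as the fall in fluorescence at ex/em 390/450 nm. Specific activity taken from the initial linear slope; one unit degrades 1 μmol OTA per min at a starting OTA of […].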
Consider B3, for which the “Specific OTA detoxification activities in % compared to the enzyme of SEQ ID NO: 1, pH 6.0” value came to 46%.

As to B4, the “Specific OTA detoxification activities in % compared to the enzyme of SEQ ID NO: 1, pH 6.0” value was 36%.

As for B5, the “Specific OTA detoxification activities in % compared to the enzyme of SEQ ID NO: 1, pH 6.0” value amounted to 27%.

As for B6, the “Specific OTA detoxification activities in % compared to the enzyme of SEQ ID NO: 1, pH 6.0” value was 64%.

Turning to B7, the “Specific OTA detoxification activities in % compared to the enzyme of SEQ ID NO: 1, pH 6.0” value is reported as 80%.

For the molecule B8, the “Specific OTA detoxification activities in % compared to the enzyme of SEQ ID NO: 1, pH 6.0” value came to 23%.

On to B9, for which the “Specific OTA detoxification activities in % compared to the enzyme of SEQ ID NO: 1, pH 6.0” value is given as 69%.

On to B10, for which the “Specific OTA detoxification activities in % compared to the enzyme of SEQ ID NO: 1, pH 6.0” value is on record as 33%.

In the case of B11, the “Specific OTA detoxification activities in % compared to the enzyme of SEQ ID NO: 1, pH 6.0” value was 32%.

For the molecule B12, the “Specific OTA detoxification activities in % compared to the enzyme of SEQ ID NO: 1, pH 6.0” value was 6%.

On to B13, for which the “Specific OTA detoxification activities in % compared to the enzyme of SEQ ID NO: 1, pH 6.0” value was 15%.

As for B14, the “Specific OTA detoxification activities in % compared to the enzyme of SEQ ID NO: 1, pH 6.0” value was 70%.

For B15, the “Specific OTA detoxification activities in % compared to the enzyme of SEQ ID NO: 1, pH 6.0” value was 16%.

With B16, the “Specific OTA detoxification activities in % compared to the enzyme of SEQ ID NO: 1, pH 6.0” value worked out at 15%.

In the case of B17, the “Specific OTA detoxification activities in % compared to the enzyme of SEQ ID NO: 1, pH 6.0” value was 35%.

On to B18, for which the “Specific OTA detoxification activities in % compared to the enzyme of SEQ ID NO: 1, pH 6.0” value is listed as 15%.

Turning to B19, the “Specific OTA detoxification activities in % compared to the enzyme of SEQ ID NO: 1, pH 6.0” value worked out at 51%.

Regarding B20, the “Specific OTA detoxification activities in % compared to the enzyme of SEQ ID NO: 1, pH 6.0” value was determined as 43%.

Regarding B21, the “Specific OTA detoxification activities in % compared to the enzyme of SEQ ID NO: 1, pH 6.0” value was 102%.

Still in this data set, the particulars now being: pH 6.0; SEQ ID NO: 2 = 100%.
As to B1, the “Specific OTA detoxification activities in % compared to the enzyme of SEQ ID NO: 2, pH 6.0” value was 42.00%.

Turning to B2, the “Specific OTA detoxification activities in % compared to the enzyme of SEQ ID NO: 2, pH 6.0” value was 11.00%.

Still in this data set, the particulars now being: pH 7.5; SEQ ID NO: 1 = 100%.
Consider B3, for which the “Specific OTA detoxification activities in % compared to the enzyme of SEQ ID NO: 1, pH 7.5” value was determined as 140%.

On to B4, for which the “Specific OTA detoxification activities in % compared to the enzyme of SEQ ID NO: 1, pH 7.5” value was 146%.

For the molecule B5, the “Specific OTA detoxification activities in % compared to the enzyme of SEQ ID NO: 1, pH 7.5” value worked out at 54%.

Take B6: the “Specific OTA detoxification activities in % compared to the enzyme of SEQ ID NO: 1, pH 7.5” value is 100%.

For the molecule B7, the “Specific OTA detoxification activities in % compared to the enzyme of SEQ ID NO: 1, pH 7.5” value is on record as 77%.

For B8, the “Specific OTA detoxification activities in % compared to the enzyme of SEQ ID NO: 1, pH 7.5” value was 61%.

Consider B9, for which the “Specific OTA detoxification activities in % compared to the enzyme of SEQ ID NO: 1, pH 7.5” value was determined as 333%.

B10: the “Specific OTA detoxification activities in % compared to the enzyme of SEQ ID NO: 1, pH 7.5” value turned out to be 40%.

As for B11, the “Specific OTA detoxification activities in % compared to the enzyme of SEQ ID NO: 1, pH 7.5” value is on record as 87%.

For the molecule B12, the “Specific OTA detoxification activities in % compared to the enzyme of SEQ ID NO: 1, pH 7.5” value came out at 8%.

For the molecule B13, the “Specific OTA detoxification activities in % compared to the enzyme of SEQ ID NO: 1, pH 7.5” value is recorded as 15%.

As to B14, the “Specific OTA detoxification activities in % compared to the enzyme of SEQ ID NO: 1, pH 7.5” value was 67%.

For the molecule B15, the “Specific OTA detoxification activities in % compared to the enzyme of SEQ ID NO: 1, pH 7.5” value stood at 44%.

For B16, the “Specific OTA detoxification activities in % compared to the enzyme of SEQ ID NO: 1, pH 7.5” value was 16%.

As to B17, the “Specific OTA detoxification activities in % compared to the enzyme of SEQ ID NO: 1, pH 7.5” value is reported as 26%.

With B18, the “Specific OTA detoxification activities in % compared to the enzyme of SEQ ID NO: 1, pH 7.5” value stood at 34%.

Consider B19, for which the “Specific OTA detoxification activities in % compared to the enzyme of SEQ ID NO: 1, pH 7.5” value amounted to 28%.

For the molecule B20, the “Specific OTA detoxification activities in % compared to the enzyme of SEQ ID NO: 1, pH 7.5” value worked out at 112%.

Regarding B21, the “Specific OTA detoxification activities in % compared to the enzyme of SEQ ID NO: 1, pH 7.5” value amounted to 75%.

Staying with this data set, now noted: pH 7.5; SEQ ID NO: 2 = 100%.
For B1, the “Specific OTA detoxification activities in % compared to the enzyme of SEQ ID NO: 2, pH 7.5” value was 187.00%.

Take B2: the “Specific OTA detoxification activities in % compared to the enzyme of SEQ ID NO: 2, pH 7.5” value is 53.00%.
